To fix the notation:
T1: MdNAC104-His (Malus domestica, UniProt D9ZJ88 1-204)
T1 sequence: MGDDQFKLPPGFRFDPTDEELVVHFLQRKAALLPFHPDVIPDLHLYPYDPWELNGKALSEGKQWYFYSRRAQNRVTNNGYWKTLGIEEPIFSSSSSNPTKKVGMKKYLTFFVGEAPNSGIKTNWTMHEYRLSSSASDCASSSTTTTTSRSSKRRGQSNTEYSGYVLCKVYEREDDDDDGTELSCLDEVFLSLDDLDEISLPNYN

B1: MdF3H-a-P5 (dsDNA)
DNA 1: CAATTGAGTAATTTCGTTCTTAATTCTTTT
DNA 2: AAAAGAATTAAGAACGAAATTACTCAATTG
B2: MdCHS-b-P2 (dsDNA)
DNA 1: GATGTGGAACATGTGTGGCTATTAGGTTGGTATTCACACGAAATACGACCTACTATATAC
DNA 2: GTATATAGTAGGTCGTATTTCGTGTGAATACCAACCTAATAGCCACACATGTTCCACATC
B3: MdANS-b-P4 (dsDNA)
DNA 1: GATTCCTATATATACGTAACTAGCTCATAG
DNA 2: CTATGAGCTAGTTACGTATATATAGGAATC
B4: MdANS-b-P1 (dsDNA)
DNA 1: GGTGAGATGTCACATGTACAACAGCCACAT
DNA 2: ATGTGGCTGTTGTACATGTGACATCTCACC
B5: MdF3H-a-P1 (dsDNA)
DNA 1: CAAACACAAAACGTATTTCGTTTGAGCCAA
DNA 2: TTGGCTCAAACGAAATACGTTTTGTGTTTG
B6: MdCBF1-P1 (dsDNA)
DNA 1: CATCCCCACGAAAAGTACACAACCAACACA
DNA 2: TGTGTTGGTTGTGTACTTTTCGTGGGGATG
B7: MdCBF3-P1 (dsDNA)
DNA 1: TATATATATTCATGTGGATTGGGTGATGAG
DNA 2: CTCATCACCCAATCCACATGAATATATATA
B8: MdPRXR1.1-P2 (dsDNA)
DNA 1: TTTGTAACTAACGGAAAACTTAATACAAAA
DNA 2: TTTTGTATTAAGTTTTCCGTTAGTTACAAA
B9: MdFSD2-P3 (dsDNA)
DNA 1: GTCATTTTGGACGAAAACTTTAATGAAAAT
DNA 2: ATTTTCATTAAAGTTTTCGTCCAAAATGAC
B10: MdCBF1-P1-mut (dsDNA)
DNA 1: B6 DNA 1 with C9A, G10A
DNA 2: B6 DNA 2 with C21T, G22T
B11: MdCHI-P1 (dsDNA)
DNA 1: CTTTTGAGTTGGTTTCGTTGAAGACTTTTT
DNA 2: AAAAAGTCTTCAACGAAACCAACTCAAAAG
B12: MdF3H-a-P3 (dsDNA)
DNA 1: GTTACCCCATATGACCATGTAACCGTCTGA
DNA 2: TCAGACGGTTACATGGTCATATGGGGTAAC
B13: MdCBF3-P1-mut (dsDNA)
DNA 1: TATATATATTAAAAAAGATTGGGTGATGAG
DNA 2: CTCATCACCCAATCTTTTTTAATATATATA
B14: MdCHS-b-P4 (dsDNA)
DNA 1: TCCTTTTTACGAAAGTGACATTACAACGAA
DNA 2: TTCGTTGTAATGTCACTTTCGTAAAAAGGA
B15: MdF3H-a-P2 (dsDNA)
DNA 1: ACATAGATGAATACATGTCACCGCCATAAT
DNA 2: ATTATGGCGGTGACATGTATTCATCTATGT
B16: MdF3H-a-P7 (dsDNA)
DNA 1: CAAAAATATTTTCCGTAATGAAGTGTCTTG
DNA 2: CAAGACACTTCATTACGGAAAATATTTTTG

Numbering of substitutions follows the chain as printed.

The target of the series is T1, MdNAC104-His. Briefly: EMSA; LightShift Chemiluminescent EMSA kit (Thermo) per manufacturer; buffer, salt, pH and temperature not stated. To be noted: protein: recombinant; tags: His (pET32a); chain copies: 2; label: biotin; blunt. (In EMSA bound probe runs differently from free probe, usually more slowly.)
B1: the binding result is reported as “binds”.
For B2, the binding result is reported as “binds”.
Regarding B3, the binding result is “binds”.
For B4, the binding result is “binds”.
In the case of B5 it was “binds”; in that of B6, “binds”.
B7: the binding result is “binds”.
As for B8, the entry is “binds”.
In the case of B9, the binding result was “binds”.
Consider B10, for which the binding result is reported as “no binding”.
As to B11, the binding result is “binds”.
On to B12, for which the binding result is “binds”.
As to B13, the binding result is “no binding”.
In the case of B14 it was “binds”; in that of B15, “binds”; in that of B16, “binds”.
